Experimental data taken from publication PMC5013986 (RNA Biology, 2016).
Like-named read-outs stand apart in the source and are kept apart here.

B1: Strep-tagged GapA lacking SR1P (enzyme, B. subtilis, UniProt P09124 1-335, looked up)
chain: MAVKVGINGFGRIGRNVFRAALNNPEVEVVAVNDLTDANMLAHLLQYDSVHGKLDAEVSVDGNNLVVNGKTIEVSAERDPAKLSWGKQGVEIVVESTGFFTKRADAAKHLEAGAKKVIISAPANEEDITIVMGVNEDKYDAANHDVISNASCTTNCLAPFAKVLNDKFGIKRGMMTTVHSYTNDQQILDLPHKDYRRARAAAENIIPTSTGAAKAVSLVLPELKGKLNGGAMRVPTPNVSLVDLVAELNQEVTAEEVNAALKEAAEGDLKGILGYSEEPLVSGDYNGNKNSSTIDALSTMVMEGSMVKVISWYDNESGYSNRVVDLAAYIAKKGL
B2: RNase J1 (enzyme)
chain: not shown
B3: untagged GapA (enzyme, UniProt P09124 1-335, looked up)
chain: B1 chain
B4: GapA_(Strep)/SR1P (Strep-tagged GapA carrying SR1P) (complex)
chain 1: B1 chain
chain 2: MGTIVCQDCNEAIHYFEDEKVTTLYGTCCGQCQCPVDEE

Legend:
His-tagged RNase J1 [1] = target: T1, His-tagged RNase J1 (B. subtilis, UniProt Q45493 1-555); assay: far-Western, overlay or dot blot
[2] = target: B1; assay: pull-down
[3] = target: B4; assay: pull-down
His-tagged RNase J1 [4] = target: T1, His-tagged RNase J1; assay: far-Western, overlay or dot blot; remark: listed apart in the source

T1 sequence (Q45493 whole entry): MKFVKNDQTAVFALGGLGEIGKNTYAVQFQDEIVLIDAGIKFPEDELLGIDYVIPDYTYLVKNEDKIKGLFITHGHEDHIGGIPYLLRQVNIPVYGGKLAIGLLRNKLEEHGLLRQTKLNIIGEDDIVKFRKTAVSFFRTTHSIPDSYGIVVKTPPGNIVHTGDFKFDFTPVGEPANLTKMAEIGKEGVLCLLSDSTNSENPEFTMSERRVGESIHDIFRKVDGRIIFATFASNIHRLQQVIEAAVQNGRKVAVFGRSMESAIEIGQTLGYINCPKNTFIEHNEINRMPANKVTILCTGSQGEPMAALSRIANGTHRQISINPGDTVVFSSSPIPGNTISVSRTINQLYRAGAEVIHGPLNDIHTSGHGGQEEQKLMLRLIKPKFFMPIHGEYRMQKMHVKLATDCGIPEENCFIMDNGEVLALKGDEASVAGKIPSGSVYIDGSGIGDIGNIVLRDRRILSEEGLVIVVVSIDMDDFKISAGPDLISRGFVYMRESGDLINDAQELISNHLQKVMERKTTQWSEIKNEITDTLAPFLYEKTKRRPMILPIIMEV

B1
binding result (His-tagged RNase J1 [1]): binds

B2
GapA-RNase J1 ratio [2]: ~200 GapA per RNase J1 | GapA/SR1P-RNase J1 ratio [3]: 80 GapA/SR1P per RNase J1

B3
binding result (His-tagged RNase J1 [1]): binds

B4
binding result (His-tagged RNase J1 [4]): binds
